Measured values from paper PMC9544252.

Tests used:
[1] = biological target: HIV-1 CAP256 SU Env gp140 produced in HEK293 cells (HIV-1 (subtype C, CAP256 SU)); experiment: SEC; gel filtration of lectin-purified gp140; normalised, overlaid elution profiles
[2] = biological target: HIV-1 CAP256 SU Env gp140, "glycan-enhanced" (GE), produced in N. benthamiana ∆XF (HIV-1 (subtype C, CAP256 SU)); experiment: as above

How did the stoichiometry N [1] turn out when “HIV-1 CAP256 SU Env gp140 produced in HEK293 cells (natural protein)” was run?
Its stoichiometry N is 3.

With “HIV-1 CAP256 SU Env gp140, "glycan-enhanced" (GE), produced in N. benthamiana ∆XF (natural protein)” as the substance, how does the stoichiometry N [2] read?
The stoichiometry N was 3.
